Data: patent publication US20070105771A1

Tests used:
Test in all cases: peptide microarray
[1] = target: T1, human CD26-derived 13 mer peptide 13 (human)
T1 sequence (peptide): QENNILVFNAEYG

[2] = target: T2, human CD26-derived 13 mer peptide 31 (human)
T2 sequence (peptide): SPDGQFILLEYNY

[3] = target: T3, human CD26-derived 13 mer peptide 29 (human)
T3 sequence (peptide): DYSISPDGQFILL

[4] = target: T4, human CD26-derived 13 mer peptide 69 (human)
T4 sequence (peptide): RITWTGKEDIIYN

[5] = target: T5, human CD26-derived 13 mer peptide 16 (human)
T5 sequence (peptide): VFNAEYGNSSVFL

[6] = target: T6, human CD26-derived 13 mer peptide 125 (human)
T6 sequence (peptide): GDHYLCDVTWATQ

[7] = target: T7, human CD26-derived 13 mer peptide 91 (human)
T7 sequence (peptide): FNDTEVPLIEYSF

[8] = target: T8, human CD26-derived 13 mer peptide 121 (human)
T8 sequence (peptide): TAPASMLIGDHYL

- Mean Signal Value [1]: 1.94
- Mean Signal Value [2]: 2.33
- Mean Signal Value [3]: 2.16
- Mean Signal Value [4]: 2.45
- Mean Signal Value [5]: 1.92
- Mean Signal Value [6]: 1.8
- Mean Signal Value [7]: 2.3
- Mean Signal Value [8]: 2.08
B1: rhuMAb 411 (antibody, human IgG1, kappa, V domains shown)
VH: EVQLVESGAGVKQPGGTLRLTCTASGFSLTTYGVHWVRQAPGKGLEWVGVIWGDGRTDYDAAFMSRVTISKDTSKSTVYLQMNSLRAEDTAVYYCMRNRHDWFDYWGQGTTVTVSS
VL: DILLTQSPSSLSATPGERATITCRASQGIRNNLNWYQQKPGQAPRLLIYYSSNLQSGVPSRFSGSGSGTDFTLTISRLQPEDVAAYYCQQSIKLPFTFGSGTKVEIKR
